Results published in PMC11548252.
Like-named read-outs stand apart in the source and are kept apart here.

Legend:
[1] = target: SARS-CoV-2 Spike protein (SARS-CoV-2) (UniProt P0DTC2); test: fluorescence dequenching (Cy5/BHQ2)
[2] = target: SARS-CoV-2 Spike protein (SARS-CoV-2) (UniProt P0DTC2); test: fluorescence dequenching (Cy5/BHQ2); remark: listed apart in the source
[3] = target: SARS-CoV-2 Spike protein (SARS-CoV-2) (UniProt P0DTC2); test: ligand-responsive LAMP, colorimetric (indirect); settings: 5'-phosphate

Sequence | binding (% fluorescence increase) [1] | binding (% fluorescence increase) [2] | binding (% increase of Abs430/Abs560) [3]
CAGCACCGACCTTGTGCTTTGGGAGTGCTGGTCCAAGGGCGTTAATGGAC [EY615QF] | 46 | 31 | 
CAGCACCGACCTTGTGCTTTGGGAGTGCTGGTCCAAGGGCGTTAATGGAC [EY615] |  |  | 81
